{"source": "IntAct's records for PubMed 16882004", "parents": {"B1": {"name": "Neuronal cell adhesion molecule (Mus musculus), Q810U4 (parent)", "chain": "MQLKIMPKKKHLSAGGVPLILFLCQMISALDVPLDLVQPPTITQQSPKDYIIDPRENIVIQCEAKGKPPPSFSWTRNGTHFDIDKDPLVTMKPGSGTLVINIMSEGKAETYEGVYQCTARNERGAAVSNNIVVRPSRSPLWTKERLEPIVLQNGQSLVLPCRPPIGLPPAIIFWMDNSFQRLPQSERVSQGLNGDLYFSNVLPEDTREDYICYARFNHTQTIQQKQPISLKVISVDELNDTIAANLSDTEFYGAKSSKERPPTFLTPEGNESHKEELRGNVLSLECIAEGLPTPIIYWIKEDGMLPANRTFYRNFKKTLQITHVSEADSGNYQCIAKNALGAVHHTISVTVKAAPYWIVAPQNLVLSPGENGTLICRANGNPKPRISWLTNGVPIEIALDDPSRKIDGDTIIFSNVQESSSAVYQCNASNKYGYLLANAFVNVLAEPPRILTSANTLYQVIANRPALLDCAFFGSPMPTIEWFKGTKGSALHEDIYVLHDNGTLEIPVAQKDSTGTYTCVARNKLGMAKNEVHLEIKDPTRIIKQPEYAVVQRGSKVSFECRVKHDHTLIPTIMWLKDNGELPNDERFSTDKDHLVVSDVKDDDGGTYTCTANTTLDSASASAVLRVVAPTPTPAPIYDVPNPPFDLELTNQLDKSVQLTWTPGDDNNSPITKFIIEYEDAMHDAGLWRHQAEVSGTQTTAQLKLSPYVNYSFRVMAENSIGRSMPSEASEQYLTKAAEPDQNPMAVEGLGTEPDNLVITWKPLNGFQSNGPGLQYKVSWRQKDGDDEWTSVVVANVSKYIVSGTPTFVPYLIKVQALNDVGFAPEPAAVMGHSGEDLPMVAPGNVRVSVVNSTLAEVHWDPVPPKSVRGHLQGYRIYYWKTQSSSKRNRRHIEKKILTFQGTKTHGMLPGLQPYSHYALNVRVVNGKGEGPASTDRGFHTPEGVPSAPSSLKIVNPTLDSLTLEWDPPSHPNGILTEYILQYQPINSTHELGPLVDLKIPANKTRWTLKNLNFSTRYKFYFYAQTSVGPGSQITEEAITTVDEAGIPPPDVGAGKGKEEWRKEIVNGSRSFFGLKGLMPGTAYKVRVGAEGDSGFVSSEDVFETGPAMASRQVDIATQGWFIGLMCAVALLILILLIVCFIRRNKGGKYPVKEKEDAHADPEIQPMKEDDGTFGEYSDAEDHKPLKKGSRTPSDRTVKKEDSDDSLVDYGEGVNGQFNEDGSFIGQYSGKKEKEPAEGNESSEAPSPVNAMNSFV"}}, "data": [{"variants_of": "B1", "details": "with dlg1_mouse Dlg1, Q811D0", "values": [{"variant": "V1256A", "effect of a mutation on the interaction": "disrupting interaction"}]}]}
